T1: CYLD CAP-Gly3 L475P (aa 467-582) (human, UniProt Q9NQC7 467-582, L475P)
T1 construct: CYLD, human, third CAP-Gly domain, aa 467-582, with L475P; Isotope-labelled for NMR; also called pOPINS-CYLD 467-582 L475P; source: E. coli Rosetta2 (DE3) pLacI, purified (HisTrap, anion exchange, SEC)
T1 sequence (looked up): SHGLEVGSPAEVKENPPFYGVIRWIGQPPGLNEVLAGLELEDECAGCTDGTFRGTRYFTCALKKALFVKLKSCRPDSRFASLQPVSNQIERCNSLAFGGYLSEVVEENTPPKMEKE

B1: CYLD CAP-Gly3 (aa 460-582) (domain or fragment, human, UniProt Q9NQC7 460-582, looked up)
chain: LAMPPGNSHGLEVGSLAEVKENPPFYGVIRWIGQPPGLNEVLAGLELEDECAGCTDGTFRGTRYFTCALKKALFVKLKSCRPDSRFASLQPVSNQIERCNSLAFGGYLSEVVEENTPPKMEKE
notes: CYLD, human, third CAP-Gly domain with flanking residues, aa 460-582; 15N- or 15N,13C-labelled where it was the observed protein in NMR; also called pOPINS-CYLD 460-582; source: E. coli Rosetta2 (DE3) pLacI, purified (HisTrap, anion exchange, SEC)

Assays:
Details in all cases: both partners purified
[1] = target: T2, Ubiquitin (UniProt P0CG47 1-76); experiment: crystal structure; CAP-Gly3 co-crystallised with 1.1 molar excess of Ub, sitting-drop vapor diffusion; molecular replacement
T2 construct: ubiquitin (mono-ubiquitin), the cut product of the ubiquitin precursors; 15N-labelled in the Ub-observed NMR experiments, unlabelled in ITC, crystallisation and the CAP-Gly-observed NMR

[2] = target: T2, Ubiquitin; experiment: NMR titration; 15N-labelled Ub observed (BEST-TROSY, weighted chemical shift perturbations), unlabelled CAP-Gly domain added (3-fold molar excess for CAP-Gly3); 298 K; 20 mM Tris pH 7.4, 100 mM NaCl, 4 mM DTT
[3] = target: B1; experiment: NMR titration; isotope-labelled CAP-Gly domain or variant observed (BEST-TROSY, chemical shift perturbations), unlabelled partner added (Ub at 3-fold molar excess, or NEMO ZnF); 298 K; 20 mM Tris pH 7.4, 100 mM NaCl, 4 mM DTT
[4] = target: T1, CYLD CAP-Gly3 L475P (aa 467-582); experiment: as above

Row | binding result [1] | binding result [2] | Binder | also measured
1 | binds | – | CYLD CAP-Gly3 (aa 467-552), crystal form 1 (domain or fragment, human, UniProt Q9NQC7 467-552, looked up, CYLD, human, third CAP-Gly domain extended C-terminally, aa 467-552 (the crystallisation methods say 465-552); also called CAP-Gly3 (467-552); source: E. coli Rosetta2 (DE3) pLacI, purified (HisTrap, anion exchange, SEC)) SHGLEVGSLAEVKENPPFYGVIRWIGQPPGLNEVLAGLELEDECAGCTDGTFRGTRYFTCALKKALFVKLKSCRPDSRFASLQPVS | –
2 | binds | – | CYLD CAP-Gly3 (aa 467-565), crystal form 2 (domain or fragment, human, UniProt Q9NQC7 467-565, looked up, also called CAP-Gly3 (467-565); source: E. coli Rosetta2 (DE3) pLacI, purified (HisTrap, anion exchange, SEC)) SHGLEVGSLAEVKENPPFYGVIRWIGQPPGLNEVLAGLELEDECAGCTDGTFRGTRYFTCALKKALFVKLKSCRPDSRFASLQPVSNQIERCNSLAFGG | –
3 | – | binds | CYLD CAP-Gly2 (aa 226-313) (domain or fragment, human, UniProt Q9NQC7 226-313, looked up, CYLD, human, second CAP-Gly domain, aa 226-313; Isotope-labelled where it was the observed protein in NMR; also called pOPINS-CYLD 226-313; source: E. coli Rosetta2 (DE3) pLacI, purified (HisTrap, anion exchange, SEC)) ELPPLEINSRVSLKVGETIESGTVIFCDVLPGKESLGYFVGVDMDNPIGNWDGRFDGVQLCSFACVESTILLHINDIIPALSESVTQE | –
4 | – | – | SQRRSPPEEPPDFCCPKCQYQAPDMDTLQIHVMECIE (domain or fragment, UniProt Q9Y6K9 383-419, looked up, NEMO/IKKγ, zinc finger domain, aa 383-419; Expression and purification of this construct are not described; also called NEMO/IKKγ; pOPINB-NEMO 383-419) [NEMO ZnF domain (aa 383-419)] | binding result [3]: binds; binding result [4]: binds
5 | – | binds | B1 | –

Source: PMC8511506 (Cell Reports, 2021)
